B1: FAM189A2 (parent)
chain: GSEAAVIPLDLGCTQVTQDGDIPN
B2: ZNF263 (parent)
chain: QRTHTGEKPYKCPECGEIFAHSSN
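Further: lentivirally expressed fusions sorted by FACS into six bins by GFP to DsRed ratio, PSI derived from sequencing read proportions per bin multiplied by bin number.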

In the first series the parent is B1. Nature of the series: protein stability index of a GFP-peptide fusion (GPS, HEK-293T) (PSI 1-6); higher = more stable. The settings on record: c terminus: a fixed tail appended.
For GSEAAVIPLDLGCTQVTQVGDIPN [D19V], the protein stability index was determined as 4.77.

In the case of GSEAAVIPLDLGCTQVTQYGDIPN [D19Y], the protein stability index was found to be 4.47.

For the variant GSEAAVIPLDLGCTQVTQDGDIMN [P23M], the protein stability index came to 5.22.

In the case of GSEAAVIPLDLGCTQVTQDGDIGN [P23G], the protein stability index turned out to be 5.44.

For GSEAAVIPLDLGCTQVTQDGDIQN [P23Q], the protein stability index stood at 5.3.

Consider GSEAAVIPLDLGCTQVTQDGDIDN [P23D], for which the protein stability index worked out at 5.81.

For the variant GSEAAVIPLDLGCTQVTQDGDIWN [P23W], the protein stability index was found to be 4.07.

As for GSEGAVIPLDLGCTQVTQDGDIPN [A4G], the protein stability index was determined as 5.29.

GSEPAVIPLDLGCTQVTQDGDIPN [A4P]: the protein stability index turned out to be 5.53.

As for GSECAVIPLDLGCTQVTQDGDIPN [A4C], the protein stability index is 4.74.

For GSENAVIPLDLGCTQVTQDGDIPN [A4N], the protein stability index is 5.58.

Variants of B2 are the subject of another series. The description is as above. As to conditions: c terminus: a fixed tail appended.
Consider QRTHTGEKPYKCPECGEIFVHSSN [A20V], for which the protein stability index was 3.04.

Take QRTHTGEKPYKCPECGEIFRHSSN [A20R]: the protein stability index worked out at 2.93.

In the case of QRTHTGEKPYKCPECGEIFYHSSN [A20Y], the protein stability index stood at 3.49.

Turning to QRTHTGEKPYKCPECGEIFQHSSN [A20Q], the protein stability index amounted to 3.59.

With QRTHTGEKPYKCPECGEIFWHSSN [A20W], the protein stability index was 3.07.

As for QRTHTGEKPYKCPECGEIFTHSSN [A20T], the protein stability index is 3.11.

QRTHTGEKPYKCPECGEIFSHSSN [A20S]: the protein stability index worked out at 3.83.

As to QRTHTGEKPYKCPECGEIFAHLSN [S22L], the protein stability index stood at 2.39.

For QRTHTGEKPYKCPECGEIFAHQSN [S22Q], the protein stability index was 2.81.

Turning to QRTHTGEKPYKCPECGEIFAHGSN [S22G], the protein stability index turned out to be 2.92.

Turning to QRTHTGEKPYKCPECGEIFAHASN [S22A], the protein stability index is 2.88.

Regarding QRTHTGEKPYKCPECGEIFAHESN [S22E], the protein stability index was found to be 3.62.

Turning to QRTHTGEKPYKCPECGEIFAHNSN [S22N], the protein stability index is 3.38.

For QRTHTGEKPYKCPECGEIFAHMSN [S22M], the protein stability index is 2.49.

Regarding QRTHTGEKPYKCPECGEIFAHKSN [S22K], the protein stability index was 3.16.

In the case of QRTHTGEKPYKCPECGEIFAHRSN [S22R], the protein stability index amounted to 2.38.

As to QRTHTGEKPYKCPECGEIFAHFSN [S22F], the protein stability index is 2.8.

On to QRTHTGEKPYKCPECGEIFAHDSN [S22D], for which the protein stability index came to 3.64.

With QRTHTGEKPYKCPECGEIFAHPSN [S22P], the protein stability index was 2.88.

As for QRTHTGEKPYKCPECGEIFAHHSN [S22H], the protein stability index worked out at 3.87.

Turning to QRTHTGEKPYKCPECGEIFAHTSN [S22T], the protein stability index amounted to 2.92.

On to QRTHTGEKPYKCPECGEIFAHWSN [S22W], for which the protein stability index stood at 3.31.

For QRTHTGEKPYKCPECGEIFAHCSN [S22C], the protein stability index amounted to 4.15.

Turning to QRTHTGEKPYKCPECGEIFAHYSN [S22Y], the protein stability index is 2.71.

For the variant QRTHTGEKPYKCPECGEIFAHISN [S22I], the protein stability index came out at 2.52.

For the variant QRTHTGEKPYKCPECGEIFAHVSN [S22V], the protein stability index is 2.91.

Regarding QRTHTGEKPYKCPECGEIFAHSST [N24T], the protein stability index stood at 3.54.

Consider QRTHTGEKPYKCPECGEIFAHSSV [N24V], for which the protein stability index amounted to 2.61.

In the case of QRTHTGEKPYKCPECGEIFAHSSF [N24F], the protein stability index is 2.74.

With QRTHTGEKPYKCPECGEIFAHSSI [N24I], the protein stability index came out at 2.65.

As to QRTHTGEKPYKCPECGEIFAHSSW [N24W], the protein stability index stood at 2.85.

As for QRTHTGEKPYKCPECGEIFAHSSG [N24G], the protein stability index was 3.04.

For the variant QRTHTGEKPYKCPECGEIFAHSSQ [N24Q], the protein stability index turned out to be 3.65.

As to QRTHTGEKPYKCPECGEIFAHSSP [N24P], the protein stability index came out at 2.61.

For the variant QRTHTGEKPYKCPECGEIFAHSSK [N24K], the protein stability index is 3.99.

For QRTHTGEKPYKCPECGEIFAHSSY [N24Y], the protein stability index is 2.96.

With QRTHTGEKPYKCPECGEIFAHSSS [N24S], the protein stability index is 3.16.

Take QRTHTGEKPYKCPECGEIFAHSSC [N24C]: the protein stability index was 5.06.

Take QRTHTGEKPYKCPECGEIFAHSSE [N24E]: the protein stability index was determined as 3.15.

For QRTHTGEKPYKCPECGEIFAHSSD [N24D], the protein stability index is 3.88.

Regarding QRTHTGEKPYKCPECGEIFAHSSR [N24R], the protein stability index was 2.39.

As for QRTHTGEKPYKCPECGEIFAHSSA [N24A], the protein stability index stood at 3.74.

As for QRTHTGEKPYKCPECGEIFAHSSL [N24L], the protein stability index was determined as 2.95.

Take QRTHTGEKPYKCPECGEIFAHSSH [N24H]: the protein stability index came to 3.49.

On to QRTHTGEKPYKCPECGEIFAHSSM [N24M], for which the protein stability index turned out to be 2.75.

Take QRTHTGEKPYKCPECGEIFAHSQN [S23Q]: the protein stability index stood at 3.31.

As to QRTHTGEKPYKCPECGEIFAHSDN [S23D], the protein stability index was found to be 3.5.

As for QRTHTGEKPYKCPECGEIFAHSAN [S23A], the protein stability index was 3.61.

Regarding QRTHTGEKPYKCPECGEIFAHSFN [S23F], the protein stability index came to 2.81.

Take QRTHTGEKPYKCPECGEIFAHSIN [S23I]: the protein stability index was 3.24.

With QRTHTGEKPYKCPECGEIFAHSCN [S23C], the protein stability index was 5.55.

In the case of QRTHTGEKPYKCPECGEIFAHSRN [S23R], the protein stability index came out at 2.77.

In the case of QRTHTGEKPYKCPECGEIFAHSWN [S23W], the protein stability index was 2.36.

In the case of QRTHTGEKPYKCPECGEIFAHSGN [S23G], the protein stability index was 3.23.

With QRTHTGEKPYKCPECGEIFAHSYN [S23Y], the protein stability index amounted to 2.73.

Consider QRTHTGEKPYKCPECGEIFAHSTN [S23T], for which the protein stability index was 3.14.

As to QRTHTGEKPYKCPECGEIFAHSNN [S23N], the protein stability index stood at 3.34.

Take QRTHTGEKPYKCPECGEIFAHSLN [S23L]: the protein stability index came to 2.75.

Turning to QRTHTGEKPYKCPECGEIFAHSEN [S23E], the protein stability index was 4.67.

As for QRTHTGEKPYKCPECGEIFAHSMN [S23M], the protein stability index was 2.81.

As for QRTHTGEKPYKCPECGEIFAHSKN [S23K], the protein stability index was 3.79.

As to QRTHTGEKPYKCPECGEIFAHSVN [S23V], the protein stability index came out at 2.71.

With QRTHTGEKPYKCPECGEIFAHSPN [S23P], the protein stability index came to 2.72.

As to QRTHTGEKPYKCPECGEIFAHSHN [S23H], the protein stability index stood at 4.71.

Turning to QRTHTGEKPYKCPECGEIFAGSSN [H21G], the protein stability index was determined as 3.22.

On to QRTHTGEKPYKCPECGEIFAASSN [H21A], for which the protein stability index is 2.95.

With QRTHTGEKPYKCPECGEIFAQSSN [H21Q], the protein stability index was 3.43.

For the variant QRTHTGEKPYKCPECGEIFANSSN [H21N], the protein stability index is 2.86.

QRTHTGEKPYKCPECGEIFAVSSN [H21V]: the protein stability index stood at 2.35.

For QRTHTGEKPYKCPECGEIFAYSSN [H21Y], the protein stability index amounted to 2.86.

As to QRTHTGEKPYKCPECGEIFAMSSN [H21M], the protein stability index is 3.19.

With QRTHTGEKPYKCPECGEIFADSSN [H21D], the protein stability index came out at 2.5.

In the case of QRTHTGEKPYKCPECGEIFALSSN [H21L], the protein stability index is 2.3.

In the case of QRTHTGEKPYKCPECGEIFASSSN [H21S], the protein stability index is 3.43.

On to QRTHTGEKPYKCPECGEIFAWSSN [H21W], for which the protein stability index turned out to be 1.95.

As for QRTHTGEKPYKCPECGEIFATSSN [H21T], the protein stability index is 3.15.

Turning to QRTHTGEKPYKCPECGEIFAPSSN [H21P], the protein stability index was determined as 3.5.

Turning to QRTHTGEKPYKCPECGEIFAESSN [H21E], the protein stability index was 3.21.

In the case of QRTHTGEKPYKCPECGEIFACSSN [H21C], the protein stability index is 3.5.

On to QRTHTGEKPYKCPECGEIFARSSN [H21R], for which the protein stability index worked out at 3.16.

Take QRTHTGEKPYKCPECGEIFAKSSN [H21K]: the protein stability index was 3.78.

Turning to QRTHTGEKPYKCPECGEIFAFSSN [H21F], the protein stability index is 2.74.

As for QRTHTGEKPYKCPECGEIFAISSN [H21I], the protein stability index turned out to be 2.05.
